{
  "source": "paper PMC9440123",
  "about": "“Rtt105 regulates RPA function by configurationally stapling the flexible domains” (Nature Communications, 2022)",
  "binders": {"B1": {"name": "Regulator of Ty1 Transposition 105 (Rtt105) (natural protein, S. cerevisiae, UniProt P40063 1-208, looked up)", "chain": "MYSNHNLNSDDCCFDWNEEKAAELQRTGVSFDRSLTPQSLRTSTRRLSEENKQQSGTMHIDTSPSVVSDIISSRRDRSQDFFGPHSSSPIAPSERQRADQRSRLESMRLTRRRDKMTKVRGGLEKMEEMIMQGEHLREMQRLKQEAQKNALPSDMAEYMEWQNNEDLEDDELLAFIEKQETYKNELEHFLNNANKNVYENNSYPNSHT", "notes": "Rtt105, S. cerevisiae, a 24 kDa protein; RSF-Duet1 plasmid; also called Rtt105^WT; unlabeled Rtt105"}},
  "key": {"[1]": {"target": "T1, Replication Protein A (RPA), S. cerevisiae heterotrimer of RPA70, RPA32 and RPA14 (S. cerevisiae, UniProt P22336 1-621; P26754 1-273; P26755 1-122)", "T1 construct": "RPA70 (Rfa1), large subunit of S. cerevisiae RPA; holds OB-F, DBD-A, DBD-B and DBD-C; RPA32 (Rfa2), middle subunit of S. cerevisiae RPA; holds DBD-D and the winged-helix domain; RPA14 (Rfa3), small subunit of S. cerevisiae RPA; holds OB-E; also called yeast RPA; unlabeled RPA; copies: + +", "T1 sequence (P26754 whole entry, chain 2 of 2, the tested form may be a part)": "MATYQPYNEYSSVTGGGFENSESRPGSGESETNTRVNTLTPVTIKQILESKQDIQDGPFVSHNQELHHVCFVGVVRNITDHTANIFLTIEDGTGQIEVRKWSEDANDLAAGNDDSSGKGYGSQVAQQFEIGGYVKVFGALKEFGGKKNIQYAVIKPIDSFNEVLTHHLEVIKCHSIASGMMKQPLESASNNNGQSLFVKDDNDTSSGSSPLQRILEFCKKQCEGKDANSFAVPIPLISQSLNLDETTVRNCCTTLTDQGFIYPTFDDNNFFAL", "T1 sequence (P26755 whole entry, chain 3 of 2, the tested form may be a part)": "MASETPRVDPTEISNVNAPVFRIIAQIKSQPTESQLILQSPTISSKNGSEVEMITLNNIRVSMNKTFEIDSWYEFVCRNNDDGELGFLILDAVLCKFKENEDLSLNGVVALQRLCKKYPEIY", "test": "AUC; sedimentation velocity as a14; Rtt105^Cy5, RPA and Rad52 mixed in equimolar concentrations, no ssDNA; 280 nm and 650 nm", "details": "both partners purified"}, "[2]": {"target": "RPA-DBD-D^MB543 (S. cerevisiae) (UniProt P22336)", "test": "optical tweezers with confocal fluorescence (C-trap); Rtt105^Cy5-RPA premixed 1:1, incubated with stretched lambda ssDNA, then moved to a buffer channel; 30 mM HEPES pH 7.8, 100 mM KCl, 6% glycerol, 5 mM MgCl2"}, "[3]": {"target": "RPA-DBD-D^Cy3 (S. cerevisiae) (UniProt P22336)", "test": "FRET or BRET; stopped-flow FRET, Cy3 excited at 535 nm, Cy5 emission; 100 nM each of RPA^Cy3 and Rtt105^Cy5; 25 °C; RPA reaction buffer; no DNA"}, "[4]": {"target": "RPA-DBD-A^Cy3 (S. cerevisiae) (UniProt P22336)", "test": "FRET or BRET; stopped-flow FRET, Cy3 excited at 535 nm, Cy5 emission; 100 nM each of RPA^Cy3 and Rtt105^Cy5; 25 °C; RPA reaction buffer; no DNA"}, "[5]": {"target": "T2, RPA (RPA70/RPA32/RPA14) (Saccharomyces cerevisiae, UniProt P22336;P26754;P26755 1-621;1-273;1-122)", "test": "competition; facilitated exchange: excess free RPA displaces prebound labeled RPA; EMSA: 25 mM Tris-Cl pH 7.5, 200 mM NaCl, 5 mM MgCl2, 5% glycerol, 0.05% Tween-20, 25 C; anisotropy/FRET: 30 mM HEPES pH 7.8, 100 mM KCl, 6% glycerol, 5 mM MgCl2, 1 mM bME, 23 C (stopped flow 25 C)", "details": "protein: recombinant; copies: 1;1;1"}, "[6]": {"target": "RPA-DBD-A-Cy5;Rtt105 (Saccharomyces cerevisiae;Saccharomyces …, UniProt P22336;P26754;P26755;P40063 1-621;1-273;1-122;1-208, |)", "sequence (P26754 whole entry, chain 2 of 2)": "as the sequence (P26754 whole entry, chain 2 of 2, the tested form may be a part) above", "sequence (P26755 whole entry, chain 3 of 2)": "as the sequence (P26755 whole entry, chain 3 of 2, the tested form may be a part) above", "test": "stopped-flow FRET; with Rtt105; kobs1 15, kobs2 1.9 s-1; EMSA: 25 mM Tris-Cl pH 7.5, 200 mM NaCl, 5 mM MgCl2, 5% glycerol, 0.05% Tween-20, 25 C; anisotropy/FRET: 30 mM HEPES pH 7.8, 100 mM KCl, 6% glycerol, 5 mM MgCl2, 1 mM bME, 23 C (stopped flow 25 C)", "details": "protein: recombinant;recombinant; tags: Cy5 on DBD-A via 4AZP;; copies: 1;1;1;1; label: 5'-Cy3"}, "[7]": {"target": "RPA-DBD-A-Cy5 (Saccharomyces cerevisiae, UniProt P22336;P26754;P26755 1-621;1-273;1-122)", "sequence (P26754 whole entry, chain 2 of 2)": "as the sequence (P26754 whole entry, chain 2 of 2, the tested form may be a part) above", "sequence (P26755 whole entry, chain 3 of 2)": "as the sequence (P26755 whole entry, chain 3 of 2, the tested form may be a part) above", "test": "stopped-flow FRET; no Rtt105; kobs1 18.2, kobs2 2.7 s-1; EMSA: 25 mM Tris-Cl pH 7.5, 200 mM NaCl, 5 mM MgCl2, 5% glycerol, 0.05% Tween-20, 25 C; anisotropy/FRET: 30 mM HEPES pH 7.8, 100 mM KCl, 6% glycerol, 5 mM MgCl2, 1 mM bME, 23 C (stopped flow 25 C)", "details": "protein: recombinant; tags: Cy5 on DBD-A via 4AZP; copies: 1;1;1; label: 5'-Cy3"}, "[8]": {"target": "RPA-DBD-D-Cy5 (Saccharomyces cerevisiae, UniProt P22336;P26754;P26755 1-621;1-273;1-122)", "sequence (P26754 whole entry, chain 2 of 2)": "as the sequence (P26754 whole entry, chain 2 of 2, the tested form may be a part) above", "sequence (P26755 whole entry, chain 3 of 2)": "as the sequence (P26755 whole entry, chain 3 of 2, the tested form may be a part) above", "test": "stopped-flow FRET; no Rtt105; kobs1 100.3, kobs2 16, kobs3 1.4 s-1; EMSA: 25 mM Tris-Cl pH 7.5, 200 mM NaCl, 5 mM MgCl2, 5% glycerol, 0.05% Tween-20, 25 C; anisotropy/FRET: 30 mM HEPES pH 7.8, 100 mM KCl, 6% glycerol, 5 mM MgCl2, 1 mM bME, 23 C (stopped flow 25 C)", "details": "protein: recombinant; tags: Cy5 on DBD-D via 4AZP; copies: 1;1;1; label: 3'-Cy3"}, "[9]": {"target": "RPA-DBD-D-Cy5;Rtt105 (Saccharomyces cerevisiae;Saccharomyces …, UniProt P22336;P26754;P26755;P40063 1-621;1-273;1-122;1-208, |)", "sequence (P26754 whole entry, chain 2 of 2)": "as the sequence (P26754 whole entry, chain 2 of 2, the tested form may be a part) above", "sequence (P26755 whole entry, chain 3 of 2)": "as the sequence (P26755 whole entry, chain 3 of 2, the tested form may be a part) above", "test": "stopped-flow FRET; with Rtt105; kobs1 0.5, kobs2 48, kobs3 3.6 s-1; EMSA: 25 mM Tris-Cl pH 7.5, 200 mM NaCl, 5 mM MgCl2, 5% glycerol, 0.05% Tween-20, 25 C; anisotropy/FRET: 30 mM HEPES pH 7.8, 100 mM KCl, 6% glycerol, 5 mM MgCl2, 1 mM bME, 23 C (stopped flow 25 C)", "details": "protein: recombinant;recombinant; tags: Cy5 on DBD-D via 4AZP;; copies: 1;1;1;1; label: 3'-Cy3"}, "[10]": {"target": "B1", "test": "other fluorescence titration; MB543 fluorescence quenching; 200 nM fluorescent RPA or F-A-B in the cuvette, unlabeled Rtt105 added stepwise; 23 °C; 30 mM HEPES pH 7.8, 100 mM KCl, 6% glycerol, 5 mM MgCl2, 1 mM βME; quadratic fit, apparent KD", "details": "both partners purified"}, "[11]": {"target": "T1, Replication Protein A (RPA), S. …", "test": "cross-linking; BS3 (5 mM) cross-linking of RPA with Rtt105 in 30 mM HEPES, 200 mM KCl, pH 7.8; SDS-PAGE shift and mass spectrometry of cross-linked peptides (XL-MS)", "details": "both partners purified"}, "[12]": {"target": "RPA-DBD-A^MB543 (S. cerevisiae) (UniProt P22336)", "test": "other fluorescence titration; MB543 fluorescence quenching; 200 nM fluorescent RPA or F-A-B in the cuvette, unlabeled Rtt105 added stepwise; 23 °C; 30 mM HEPES pH 7.8, 100 mM KCl, 6% glycerol, 5 mM MgCl2, 1 mM βME; quadratic fit, apparent KD"}, "[13]": {"target": "RPA (RPA70/RPA32/RPA14);Rtt105 (Saccharomyces cerevisiae;Saccharomyces …, UniProt P22336;P26754;P26755;P40063 1-621;1-273;1-122;1-208, |)", "sequence (P22336 whole entry, chain 1 of 4, one chain of several)": "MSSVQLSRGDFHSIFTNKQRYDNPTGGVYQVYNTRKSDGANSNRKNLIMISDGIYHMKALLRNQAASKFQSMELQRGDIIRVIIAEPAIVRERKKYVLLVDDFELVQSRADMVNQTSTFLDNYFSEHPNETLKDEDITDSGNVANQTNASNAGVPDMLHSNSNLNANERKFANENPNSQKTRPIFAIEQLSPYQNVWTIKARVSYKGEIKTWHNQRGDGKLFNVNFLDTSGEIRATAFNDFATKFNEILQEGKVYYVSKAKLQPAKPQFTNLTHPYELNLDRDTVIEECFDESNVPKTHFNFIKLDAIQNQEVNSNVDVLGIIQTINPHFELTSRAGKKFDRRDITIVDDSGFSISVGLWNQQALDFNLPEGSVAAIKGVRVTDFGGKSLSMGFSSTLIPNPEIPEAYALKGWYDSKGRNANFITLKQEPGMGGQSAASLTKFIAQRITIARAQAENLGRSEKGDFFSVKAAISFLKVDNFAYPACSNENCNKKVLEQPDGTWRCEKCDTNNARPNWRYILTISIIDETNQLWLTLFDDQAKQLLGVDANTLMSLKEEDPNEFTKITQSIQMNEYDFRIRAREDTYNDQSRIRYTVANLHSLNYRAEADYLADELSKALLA", "sequence (P26754 whole entry, chain 2 of 4, one chain of several)": "as the sequence (P26754 whole entry, chain 2 of 2, the tested form may be a part) above", "sequence (P26755 whole entry, chain 3 of 4, one chain of several)": "as the sequence (P26755 whole entry, chain 3 of 2, the tested form may be a part) above", "test": "EMSA; Rtt105 premixed 1:1; 5 mM MgCl2; stoichiometric, apparent Kd; EMSA: 25 mM Tris-Cl pH 7.5, 200 mM NaCl, 5 mM MgCl2, 5% glycerol, 0.05% Tween-20, 25 C; anisotropy/FRET: 30 mM HEPES pH 7.8, 100 mM KCl, 6% glycerol, 5 mM MgCl2, 1 mM bME, 23 C (stopped flow 25 C)", "details": "protein: recombinant;recombinant; tags: ;; copies: 1;1;1;1; label: 5'-Cy5"}, "[14]": {"target": "T2, RPA (RPA70/RPA32/RPA14)", "test": "EMSA; no Rtt105; 5 mM MgCl2; stoichiometric, apparent Kd; EMSA: 25 mM Tris-Cl pH 7.5, 200 mM NaCl, 5 mM MgCl2, 5% glycerol, 0.05% Tween-20, 25 C; anisotropy/FRET: 30 mM HEPES pH 7.8, 100 mM KCl, 6% glycerol, 5 mM MgCl2, 1 mM bME, 23 C (stopped flow 25 C)", "details": "protein: recombinant; copies: 1;1;1; label: 5'-Cy5"}, "[15]": {"target": "hRPA;RPAIN (human;human, UniProt P27694;P15927;P35244;Q86UA6 1-616;1-270;1-121;1-219, |)", "sequence (P27694 whole entry, chain 1 of 4)": "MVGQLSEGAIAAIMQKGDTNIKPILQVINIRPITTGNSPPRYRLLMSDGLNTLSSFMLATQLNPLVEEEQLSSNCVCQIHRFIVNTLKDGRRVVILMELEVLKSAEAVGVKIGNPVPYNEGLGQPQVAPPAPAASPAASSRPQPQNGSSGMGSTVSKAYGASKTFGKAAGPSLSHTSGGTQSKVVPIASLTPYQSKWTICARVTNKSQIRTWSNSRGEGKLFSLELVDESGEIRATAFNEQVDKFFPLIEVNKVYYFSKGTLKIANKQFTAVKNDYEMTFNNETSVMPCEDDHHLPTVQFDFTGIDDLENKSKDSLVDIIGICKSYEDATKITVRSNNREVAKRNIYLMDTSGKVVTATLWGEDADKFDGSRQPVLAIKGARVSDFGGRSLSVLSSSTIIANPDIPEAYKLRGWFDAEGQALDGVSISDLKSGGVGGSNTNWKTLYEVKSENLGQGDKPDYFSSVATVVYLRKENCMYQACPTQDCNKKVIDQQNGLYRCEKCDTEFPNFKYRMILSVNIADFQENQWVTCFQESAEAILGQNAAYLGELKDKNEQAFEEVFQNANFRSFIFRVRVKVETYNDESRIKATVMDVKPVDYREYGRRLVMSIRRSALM", "sequence (P15927 whole entry, chain 2 of 4)": "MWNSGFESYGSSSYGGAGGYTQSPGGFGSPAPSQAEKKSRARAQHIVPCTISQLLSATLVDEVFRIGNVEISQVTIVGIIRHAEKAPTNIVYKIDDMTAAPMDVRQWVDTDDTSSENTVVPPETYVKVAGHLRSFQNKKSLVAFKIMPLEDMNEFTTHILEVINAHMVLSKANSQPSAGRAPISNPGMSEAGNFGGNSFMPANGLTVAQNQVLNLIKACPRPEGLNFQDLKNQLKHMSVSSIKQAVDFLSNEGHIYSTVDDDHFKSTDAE", "sequence (P35244 whole entry, chain 3 of 4)": "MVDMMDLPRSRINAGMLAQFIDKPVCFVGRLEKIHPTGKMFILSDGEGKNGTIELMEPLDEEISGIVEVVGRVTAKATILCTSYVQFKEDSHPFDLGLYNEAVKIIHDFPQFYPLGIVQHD", "sequence (Q86UA6 whole entry, chain 4 of 4)": "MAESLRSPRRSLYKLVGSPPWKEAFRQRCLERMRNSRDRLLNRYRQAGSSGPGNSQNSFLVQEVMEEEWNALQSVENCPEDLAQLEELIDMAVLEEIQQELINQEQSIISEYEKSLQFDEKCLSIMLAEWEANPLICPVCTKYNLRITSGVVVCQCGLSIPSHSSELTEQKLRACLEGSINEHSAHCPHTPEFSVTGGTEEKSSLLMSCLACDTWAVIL", "test": "fluorescence anisotropy; 20 nM DNA; stoichiometric; hRPA:RPAIN 1:2; EMSA: 25 mM Tris-Cl pH 7.5, 200 mM NaCl, 5 mM MgCl2, 5% glycerol, 0.05% Tween-20, 25 C; anisotropy/FRET: 30 mM HEPES pH 7.8, 100 mM KCl, 6% glycerol, 5 mM MgCl2, 1 mM bME, 23 C (stopped flow 25 C)", "details": "protein: recombinant;recombinant; tags: ;N-terminal SUMO tag removed; copies: 1;1;1;2; label: 5'-FAM"}, "[16]": {"target": "hRPA (human, UniProt P27694;P15927;P35244 1-616;1-270;1-121)", "sequence (P27694 whole entry, chain 1 of 3)": "as the sequence (P27694 whole entry, chain 1 of 4) above", "sequence (P15927 whole entry, chain 2 of 3)": "as the sequence (P15927 whole entry, chain 2 of 4) above", "sequence (P35244 whole entry, chain 3 of 3)": "as the sequence (P35244 whole entry, chain 3 of 4) above", "test": "fluorescence anisotropy; 20 nM DNA; stoichiometric; no RPAIN; EMSA: 25 mM Tris-Cl pH 7.5, 200 mM NaCl, 5 mM MgCl2, 5% glycerol, 0.05% Tween-20, 25 C; anisotropy/FRET: 30 mM HEPES pH 7.8, 100 mM KCl, 6% glycerol, 5 mM MgCl2, 1 mM bME, 23 C (stopped flow 25 C)", "details": "protein: recombinant; copies: 1;1;1; label: 5'-FAM"}},
  "data": [
    {"binder": "Rtt105^Cy5 (Rtt105^C13S labeled with Cy5 on Cys-12) (natural protein, S. cerevisiae, UniProt P40063 1-208, looked up, Cy5 (maleimide chemistry) on Cys-12, Rtt105, S. cerevisiae, single-Cys version; also called Cy5-labeled Rtt105; fluorescent Rtt105; source: E. coli, purified similar to the wild-type protein, labeled with Cy5-maleimide) MYSNHNLNSDDCSFDWNEEKAAELQRTGVSFDRSLTPQSLRTSTRRLSEENKQQSGTMHIDTSPSVVSDIISSRRDRSQDFFGPHSSSPIAPSERQRADQRSRLESMRLTRRRDKMTKVRGGLEKMEEMIMQGEHLREMQRLKQEAQKNALPSDMAEYMEWQNNEDLEDDELLAFIEKQETYKNELEHFLNNANKNVYENNSYPNSHT", "values": [
      {"measurement": "binding result", "setting": "[1]", "value": "binds"},
      {"measurement": "t1/2 of dissociation from RPA on ssDNA", "setting": "[2]", "value": 5, "unit": "s"},
      {"measurement": "kobs,1 (two-step model)", "setting": "[3]", "value": 3.5, "unit": "s⁻¹"},
      {"measurement": "kobs,2 (two-step model)", "setting": "[3]", "value": 0.2, "unit": "s⁻¹"},
      {"measurement": "kobs (single-step model)", "setting": "[4]", "value": 0.2, "unit": "s⁻¹"}
    ]},
    {"binder": "(dT)97 (ssDNA) DNA: TTTTTTTTTTTTTTTTTTTTTTTTTTTTTTTTTTTTTTTTTTTTTTTTTTTTTTTTTTTTTTTTTTTTTTTTTTTTTTTTTTTTTTTTTTTTTTTTT", "values": [
      {"measurement": "binding result", "setting": "[5]", "value": "binds"}
    ]},
    {"binder": "TTTTTTTTTTTTTTTTTTTTTTTTTTTTTTTTTTTTTTTT (ssDNA)", "note": "[5'-Cy3-(dT)40]", "values": [
      {"measurement": "binding result", "setting": "[6]", "value": "binds"},
      {"measurement": "binding result", "setting": "[7]", "value": "binds"}
    ]},
    {"binder": "TTTTTTTTTTTTTTTTTTTTTTTTTTTTTTTTTTTTTTTT (ssDNA)", "note": "[3'-Cy3-(dT)40]", "values": [
      {"measurement": "binding result", "setting": "[8]", "value": "binds"},
      {"measurement": "binding result", "setting": "[9]", "value": "binds"}
    ]},
    {"binder": "F-A-B-DBD-A^MB543 (domain or fragment, 4-azidophenylalanine (4AZP) in DBD-A carrying the MB543 fluorophore; position not given) MSSVQLSRGDFHSIFTNKQRYDNPTGGVYQVYNTRKSDGANSNRKNLIMISDGIYHMKALLRNQAASKFQSMELQRGDIIRVIIAEPAIVRERKKYVLLVDDFELVQSRADMVNQTSTFLDNYFSEHPNETLKDEDITDSGNVANQTNASNAGVPDMLHSNSNLNANERKFANENPNSQKTRPIFAIEQLSPYQNVWTIKARVSYKGEIKTWHNQRGDGKLFNVNFLDTSGEIRATAFNDFATKFNEILQEGKVYYVSKAKLQPAKPQFTNLTHPYELNLDRDTVIEECFDESNVPKTHFNFIKLDAIQNQEVNSNVDVLGIIQTINPHFELTSRAGKKFDRRDITIVDDSGFSISVGLWNQQALDFNLPEGSVAAIKGVRVTDFGGKSLSMGFSSTLIPNPEIPEAYALKGWYDSKGRNANFITL", "values": [
      {"measurement": "Kd", "setting": "[10]", "value": 33.9, "unit": "nM"}
    ]},
    {"binder": "B1", "values": [
      {"measurement": "binding result", "setting": "[11]", "value": "binds"},
      {"measurement": "Kd", "setting": "[12]", "value": 61.1, "unit": "nM"}
    ]},
    {"binder": "TTTTTTTTTTTTTTTTTTTTTTTTTTTTTT (ssDNA)", "note": "[5'-Cy5-(dT)30]", "values": [
      {"measurement": "Kd", "setting": "[13]", "value": "5.7 ± 1.2", "unit": "nM"},
      {"measurement": "Kd", "setting": "[14]", "value": "5 ± 0.7", "unit": "nM"}
    ]},
    {"binder": "TTTTTTTTTTTTTTTTTTTTTTTTT (ssDNA)", "note": "[5'-FAM-(dT)25]", "values": [
      {"measurement": "binding result", "setting": "[15]", "value": "binds"},
      {"measurement": "binding result", "setting": "[16]", "value": "binds"}
    ]}
  ]
}
